Tested on: K4 kissing-loop RNA reporter
Assay: apparent KD of K4 kissing-loop reporter; higher = weaker reporter binding
Conditions: Eterna round: R107
Description: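 RNA-MaP round R107: designed RNA switches with theophylline, tryptophan, arginine or FMN aptamers are transcribed on-chip within common flanks. They are titrated with a labelled K4 kissing-loop RNA reporter in RNA-MaP buffer (100 mM Tris pH 7.5, 80 mM KCl, 4 mM MgCl2), without ligand or with the indicated ligand. Median apparent KD per design.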

[1] = input ligand: theophylline 20 uM
[2] = input ligand: tryptophan 2.4 mM
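Also: bound reporter read as fluorescence of individual clusters on recovered sequencing chips by microscopy, with normalized cluster intensities fitted with a binding model.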

Sequence | apparent KD of K4 kissing-loop reporter (input ligand: FMN 200 uM) | apparent KD of K4 kissing-loop reporter (input ligand: arginine 13.2 mM) | apparent KD of K4 kissing-loop reporter (input ligand: none) | apparent KD of K4 kissing-loop reporter [1] | apparent KD of K4 kissing-loop reporter [2]
UGUAAGCGCGUAGAUACCAGCAAACGAGUGAUGUUCAAAAGAUUAAGGAAAAGAAAGUAAUGCCCUUGGCAGCUAAUCAUAAGCG [whbob_Ex_Theo_B_sa91] | 304 nM | 316 nM | 449 nM | 397 nM | 247 nM
UCUCGGGCCAGUGAUGUUGGCGGCUAGUGGCGAGGACCGGUACGGCCGCCACUCGGCGCAGCAGCGGAGUGAUGUUUCGUGAGUA [Same State Tryptophan A GF 17] | 363 nM | 301 nM | 377 nM | 441 nM | 198 nM
GGAGUUACCUGGGAUACCAGUCGGAGGCCCAGAGCUCGGAGUGAUGUUCUGGGAUGUUUCGGCCCUUGGCAGCUCUGGGUCUCCG [#2 Exclusion - Theophylline B Attempt #4 (HarryS)] | 822 nM | 452 nM | 583 nM | 648 nM | 571 nM
UUUGGUUUCUCGGCCGCCACUCGUGGGAAAUGGGCCUCAGGGAUAUAGUGAUGUUAUGUAAAGAAGAGGACCGGGAGAAGGAAGG [ExTryptoB.Dl] | 300 nM | 253 nM | 306 nM | 208 nM | 233 nM
UGGUGCCAUUGGCGGGUAGAUAGUGGUGGCAAGGAUAUGUGAGCGAACAGAAGGUGCAUCAAGUUCAGUGAUGUUGGGCUCGAUU [theeternabot_sameState_KL_FMN_A_20] | 264 nM | 184 nM | 275 nM | 254 nM | 234 nM
GGUAGCAUGGCGGCCGCCACUGAGGCCCUAUACGAGUCCUAAACAACCUAGUGAUGUUAGGAGUCCAGGACCGGGCCAUGCUACC | 271 nM | 175 nM | 254 nM | 262 nM | 440 nM
AAAAUAACCCAGUGAUGUUGGUCUCCAGAUACCAGCGACGAAAGUCGCCCUUGGCAGCUGUGGACGUACAAAAUAAGUACGUCCU | 661 nM | 629 nM | 776 nM | 485 nM | 558 nM
AAACCAAUCAGAGGAUAUUCUUUAUUCGACAUAACCUUCUAUAAGGUGCAGUGAUGUUGCAAUAUAGGAGAAGGCUGAUUGACAA [Exclusion FMN B Gf 13] | 232 nM | 338 nM | 516 nM | 488 nM | 413 nM
UGGAGUUGACGAAAAGUCAACUCCUGAGAUACCAGUGACGAAAGUCACCCUUGGCAGCUCACUCCCAGUGAUGUUGGUUCAUAAG [#04 K4 Theophylline A Same State] | 328 nM | 370 nM | 601 nM | 496 nM | 356 nM
UUGAGCCGGACCGAAGUCCGGCUCUGCGAGCGAGGACCGGUACGGCCGCCACUCGGUGCAGUGAUGUUGCAUGGCCGCAAGGCCG [#2 Exclusion - Tryptophan A Attempt #8 (HarryS)] | 424 nM | 286 nM | 418 nM | 339 nM | 401 nM
UCGGUAUAGUGAUGUUAUAUAGAGAGUGAUACCAGUUUAGAGAGAAACCCUUGGCAGCAUAGAAGAGUAUCAUUGGAGGAGGAGG [#20 K4 Theophylline A Exclusion] | 455 nM | 417 nM | 387 nM | 336 nM | 301 nM
GAUAUAGUGAUGUUAUAUACUGAUAGACAACGAGGACCGGUACGGCCGCCACUCGAGAGGGUGAAAAUAAUGAUAAAAUAAUAAU [ExyTryA#1] | 343 nM | 310 nM | 359 nM | 298 nM | 265 nM
UCUAACAAAUCGGCCGCCACUGAAAUAACCCAGGAGUGAUGUUCCAUCGUCCUAGACUACUCUUCCAGGACCGGGAUCUGUGUUC [theeternabot_exclusion_KL_Trp_B_25] | 298 nM | 348 nM | 529 nM | 472 nM | 284 nM
CCGAGCUACAGCGAUACCAGUGUGGAGUGAUGUUCCCUGGUCCGGGCUGUUGUUCCCUUGCGCCCUUGGCAGCGCAGAAGCAGCU [Exclusion Theophylline B GF 14] | 303 nM | 316 nM | 367 nM | 267 nM | 396 nM
GUAGCACUUGACAGUGAUGUUGUCAAGGACAAGGAUAUCAUCUCAAUGAGAAGGUGUCCUUGAUAACAGCUACGGGAAUAUCCCA [Omei KL FMN A Exc D v3] | 312 nM | 108 nM | 136 nM | 120 nM | 123 nM
AGGGAUGUUAAAGGAUAUAGAAAGUGAUGUUAGAAAGUGAGUGAUGUUGAUGUAAGUGAUGUUAUGUUAGAAGGUUAACAAAACG [ab] | 229 nM | 120 nM | 200 nM | 215 nM | 170 nM
UAUAGACAAGUGAUGUUUGUCAUAUCCGAAGGAGCGUCUUCUAAGACAGGUAGGUCGCGGAUUAAUUUUGUUAUGAUACUAUUUA [JR_SSArginiA_Sub016] | 122 nM | 120 nM | 126 nM | 133 nM | 104 nM
GUGCGCGCGGCGGCCGCCACUCGCAUGAGAGUGAUGUUCUCACCGUGACCGUAAGGUCGCGGUGUGAGGACCGGGCCGGGCUGCG [#2 Same State - Tryptophan B Attempt #24 (HarryS)] | 181 nM | 114 nM | 207 nM | 59.5 nM | 270 nM
GCCGUACGCAUGGAUACCAGAUGGCACUAUUUUCUCCCAGAGUGAUGUUCUGGCCUGCCUAUCCCUUGGCAGCCAUGCGUACGGC | 806 nM | 616 nM | 800 nM | 488 nM | 671 nM
GUCCCGAGUGAUGUUCGGGUCGUUCGGGAAGGAGCGCCCGGAAGGGCAGGUAGGUCGCCCGGAUCCCUCAGGUAACUGAGGGACC [#2 Same State - Arginine A Attempt #25 (HarryS)] | 483 nM | 334 nM | 553 nM | 450 nM | 466 nM
CCGCUACCCUCAGGAUAUUAAAUAUUAGUGAUGUUAAUAAACCGAUGGCGAAAGCCAUCGGUAUGUUGAGAAGGGAGGGUAGCGG [whbob_SS_FMNB__2th196] | 145 nM | 593 nM | 766 nM | 549 nM | 635 nM

Sequence | apparent KD of K4 kissing-loop reporter (input ligand: FMN 200 uM) | apparent KD of K4 kissing-loop reporter (input ligand: arginine 13.2 mM) | apparent KD of K4 kissing-loop reporter (input ligand: none) | apparent KD of K4 kissing-loop reporter [1] | apparent KD of K4 kissing-loop reporter [2]
UCUGUACCGGGAAGGAGCGUGAAUGAGAAUGGAUAUAGUGAUGUUAUGUAUACGAACGAAUCGCAGGUAGGUCGCCCGGAUCCCU [SSArgB.aA] | 674 nM | 380 nM | 653 nM | 474 nM | 467 nM
CAGAACUUAUAUAGAAACUAUAUAAGAGAUACCAGUCAAAUUAAAGACCCUUGGCAGCUCAGGCGAGUGAUGUUCGCAGGCUAAC [Astros-Gfrank-modulation#1] | 99.3 nM | 94.2 nM | 102 nM | 106 nM | 78.8 nM
UGUGAACAAAAGUAGAGUGGACCACUAUAGCGAGGACCGGUACGGCCGCCACUCGUAUAUAAAUUCAGUGAUGUUGAAAAGAGCU [Exclusion Tryptophan A GF1] | 175 nM | 283 nM | 215 nM | 260 nM | 149 nM
AGACUACCACACUGUCAAUAGACAGUGAACUCGGAUAUGCUGAUAAGCAGAAGGAGUGAUGUUCCCAGGUAGUCAAUAAAAUAAU [FmnAX 13 C32+C66] | 135 nM | 111 nM | 144 nM | 233 nM | 142 nM
UGGUUAAGCAGUGAUGUUGCAAGUAAUGAUACCAGUUAAGAAGAGAACCCUUGGCAGCAUAAAGUGCGCUCUGAUGAGUGUGCUU [whbob_SS_Theo_A_w54] | 197 nM | 218 nM | 240 nM | 239 nM | 179 nM
AGCAGUGAUGUUGCAUUUAUAAUGACCGAUACCAGUAUCGAUAGAUACCCUUGGCAGCGGAUUUCCGCAACGACUAGGAAACUAG [Ex Theophylline A K4 14] | 305 nM | 359 nM | 355 nM | 508 nM | 283 nM
GGAGUUACCUGGGAUACCAGUCGGAGUCUCAGAGCUCGGAGUGAUGUUCUGGGAUGUUUCGGCCCUUGGCAGCUCUGGGACUCCU [#2 Exclusion - Theophylline B Attempt #17 (HarryS)] | 698 nM | 569 nM | 747 nM | 788 nM | 512 nM
AGUAGUUGGACGGCCGCCACUAGAACGGCUUUGCCAAAGGCAGAGCACUAGAGUGAUGUUCUAGCUAGGACCGGGUCCAACUACA [Omei KL Tryp B SS A v3] | 662 nM | 204 nM | 191 nM | 403 nM | 773 nM
AAGACUGCAGGAAGGAGCGGCGGACGGAGUGAUGUUCCGGCUAGUGAUGUUAGCAAACACCGCCAGGUAGGUCGCCUGUUGCUCU [Same State Arginine B GF7] | 113 nM | 116 nM | 126 nM | 166 nM | 128 nM
UGUGAACAAAAGUAGAGUGGACCACUAUAGCGAGGACCGGUACGGCCGCCACUCGUACAUGUAUUCAGUGAUGUUGAAAUGAGCU [whbob_EX_Tryp_A_t15] | 200 nM | 319 nM | 268 nM | 362 nM | 150 nM
GGCUUGCCAGUGAUGUUGGCAUAAACUGAAGGAGCGCGUGAAAACGCAGGUAGGUCGCAGAACCUUGCCAACUAUUUUAUUUGCC [Ex Arginine A K4 24] | 192 nM | 223 nM | 212 nM | 252 nM | 210 nM
AAACGCUGUGAAUAACACAGCGAAAAUUCGCGAGGACCGGUACGGCCGCCACUCGCUAACUGCGAGUGAUGUUCGAUAAUAAAAU [Mat - Mod of OpenEnded 3 - D11] | 182 nM | 94.8 nM | 198 nM | 210 nM | 105 nM
GUCCCAGUGAUGUUGGUAGGCGGGCGGGAUACCAGCGGAGACUCACGCCCUUGGCAGCCCACAUAUCCCGCGUAGGGAUUAGCCC [Same State - Theophylline A (Freestyle 23)] | 285 nM | 258 nM | 316 nM | 339 nM | 275 nM
AAAUAUUCGAGUGAUGUUCGUUAAAUUACAGAGGAUAUGCUUAAAAGCAGAAGGCUGUAUUUCUAUUUGUUAUGUAAUUUUAAAA [JR_ExcFMNA_Sub004] | 117 nM | 209 nM | 157 nM | 196 nM | 115 nM
UAAGAGUCUCUGCAAUUAGCAGAGACUCAACGAGGACCGGUACGGCCGCCACUCGGGUCCUAGAGUGAUGUUCUAAUAAUAUAAU [AK1.1 SS Tryptophan A] | 273 nM | 359 nM | 548 nM | 425 nM | 176 nM
GCAUCGAUGGCAGGAUAUAGGUUCGUGGAGUGAUGUUCCAUAGCCCGAGUGAUGUUCGUUAUCCGCCUAGAAGGGCCGUGGAUGC [whbob_Ex_FMNB__2th215] | 263 nM | 210 nM | 297 nM | 221 nM | 244 nM
GGAUUGCCAGUGAUGUUGGCAUAAACUGAAGGAGCGCGUGAAAACGCAGGUAGGUCGCAGAACCUUGCCAACUAUUUUAUUUACC [Ex Arginine A K4 23] | 89.3 nM | 118 nM | 97.9 nM | 103 nM | 79.8 nM
UUGUCCGGGUGAUGGUCAUCACGUGGCGGGCGAGGACCGGUACGGCCGCCACUCGACUUUGCAGUGAUGUUGCAAACCGGACAAU [Exclusion - Tryptophan A (Freestyle 23)] | 231 nM | 174 nM | 192 nM | 224 nM | 210 nM
GCCAGAUAGACGGCCGCCACUUAUAAGUUUCAGUGAUGUUGGAACGGCAAAUGCCGAACACAAUAGAGGACCGGGUCAACUGGCG [Same State Tryptophan B GF 1] | 920 nM | 591 nM | 835 nM | 901 nM | 639 nM
AGGUGCUACGGAAGGAGCGCACCAGUGAUGUUGGUGUGUGACCGUGACAUGGCAGUCAAGGUGCAGGUAGGUCGCCGUGGCCAUA [Rigela] | 138 nM | 135 nM | 140 nM | 156 nM | 136 nM
AAAAUAAACCAGUGAUGUUGGUAACCAGAUACCAGCGACGAAAGUCGCCCUUGGCAGCUGUGGACGUACAAAAUAAGUACGUCCU | 218 nM | 264 nM | 257 nM | 223 nM | 199 nM
